From article PMC11096365, “Cryo-EM structures of the human Elongator complex at work” (Nature Communications, 2024)

T1: human ELP123 (Homo sapiens, UniProt Q9H9T3)
T1 construct: gene ELP3; recombinant ELP123 subcomplex (1:1:1, two lobes), codon-optimized ORFs, C-terminal Twin-Strep-Tag on ELP3, insect cells (SuperSf9-3); ELP1 148 kDa, ELP2 93 kDa, ELP3-TST 65 kDa; with Elongator complex protein 1; Elongator complex protein 2
T1 sequence (Q9H9T3 1-547): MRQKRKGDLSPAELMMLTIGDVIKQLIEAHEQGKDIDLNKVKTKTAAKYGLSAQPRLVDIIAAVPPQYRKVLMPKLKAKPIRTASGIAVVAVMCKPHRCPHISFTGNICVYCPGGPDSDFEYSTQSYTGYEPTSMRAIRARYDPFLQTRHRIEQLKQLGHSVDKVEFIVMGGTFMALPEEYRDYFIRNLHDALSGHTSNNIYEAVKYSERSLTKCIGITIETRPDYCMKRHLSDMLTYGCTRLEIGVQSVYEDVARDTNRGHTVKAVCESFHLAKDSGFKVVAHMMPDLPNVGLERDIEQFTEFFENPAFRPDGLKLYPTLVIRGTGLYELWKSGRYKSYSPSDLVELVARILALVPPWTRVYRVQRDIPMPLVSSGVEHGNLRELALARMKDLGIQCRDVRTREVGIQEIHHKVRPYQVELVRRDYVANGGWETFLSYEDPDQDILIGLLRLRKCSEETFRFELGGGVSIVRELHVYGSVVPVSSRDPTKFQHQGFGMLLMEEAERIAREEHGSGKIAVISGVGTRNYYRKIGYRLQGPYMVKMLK
T1 sequence (O95163 1-1332 partner): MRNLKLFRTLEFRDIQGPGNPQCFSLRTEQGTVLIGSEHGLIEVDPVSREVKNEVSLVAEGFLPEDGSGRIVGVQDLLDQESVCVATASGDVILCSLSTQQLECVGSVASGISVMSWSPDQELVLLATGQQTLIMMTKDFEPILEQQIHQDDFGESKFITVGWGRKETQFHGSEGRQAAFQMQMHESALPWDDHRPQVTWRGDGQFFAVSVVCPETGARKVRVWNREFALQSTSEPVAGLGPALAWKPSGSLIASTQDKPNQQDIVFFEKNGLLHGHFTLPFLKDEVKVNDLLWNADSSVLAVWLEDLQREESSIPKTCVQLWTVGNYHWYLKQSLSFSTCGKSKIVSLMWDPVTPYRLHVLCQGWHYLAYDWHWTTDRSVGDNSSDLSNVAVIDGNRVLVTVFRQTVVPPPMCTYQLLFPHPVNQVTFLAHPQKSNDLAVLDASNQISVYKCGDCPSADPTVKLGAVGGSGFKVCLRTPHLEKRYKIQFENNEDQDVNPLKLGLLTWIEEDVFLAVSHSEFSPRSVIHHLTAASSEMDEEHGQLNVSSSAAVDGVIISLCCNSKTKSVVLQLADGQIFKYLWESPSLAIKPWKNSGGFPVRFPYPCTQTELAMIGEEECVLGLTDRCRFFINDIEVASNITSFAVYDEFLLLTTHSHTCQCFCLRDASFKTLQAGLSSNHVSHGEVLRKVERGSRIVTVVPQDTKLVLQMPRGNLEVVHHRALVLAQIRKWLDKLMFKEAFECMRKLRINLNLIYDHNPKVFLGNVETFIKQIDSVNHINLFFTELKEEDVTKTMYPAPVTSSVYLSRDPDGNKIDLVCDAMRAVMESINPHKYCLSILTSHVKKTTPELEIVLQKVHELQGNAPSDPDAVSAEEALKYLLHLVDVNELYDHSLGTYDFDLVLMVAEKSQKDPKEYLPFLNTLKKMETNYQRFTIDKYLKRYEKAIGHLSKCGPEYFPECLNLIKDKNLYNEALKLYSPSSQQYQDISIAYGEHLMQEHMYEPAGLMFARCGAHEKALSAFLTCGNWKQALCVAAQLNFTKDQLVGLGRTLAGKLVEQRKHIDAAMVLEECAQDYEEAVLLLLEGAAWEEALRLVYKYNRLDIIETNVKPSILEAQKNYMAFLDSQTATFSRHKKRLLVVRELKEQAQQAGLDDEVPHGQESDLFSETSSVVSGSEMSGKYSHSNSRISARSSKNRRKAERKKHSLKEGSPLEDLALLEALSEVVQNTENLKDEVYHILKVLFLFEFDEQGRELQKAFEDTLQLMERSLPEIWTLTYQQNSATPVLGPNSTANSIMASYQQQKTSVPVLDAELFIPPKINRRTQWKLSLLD
T1 sequence (Q6IA86 1-826 partner): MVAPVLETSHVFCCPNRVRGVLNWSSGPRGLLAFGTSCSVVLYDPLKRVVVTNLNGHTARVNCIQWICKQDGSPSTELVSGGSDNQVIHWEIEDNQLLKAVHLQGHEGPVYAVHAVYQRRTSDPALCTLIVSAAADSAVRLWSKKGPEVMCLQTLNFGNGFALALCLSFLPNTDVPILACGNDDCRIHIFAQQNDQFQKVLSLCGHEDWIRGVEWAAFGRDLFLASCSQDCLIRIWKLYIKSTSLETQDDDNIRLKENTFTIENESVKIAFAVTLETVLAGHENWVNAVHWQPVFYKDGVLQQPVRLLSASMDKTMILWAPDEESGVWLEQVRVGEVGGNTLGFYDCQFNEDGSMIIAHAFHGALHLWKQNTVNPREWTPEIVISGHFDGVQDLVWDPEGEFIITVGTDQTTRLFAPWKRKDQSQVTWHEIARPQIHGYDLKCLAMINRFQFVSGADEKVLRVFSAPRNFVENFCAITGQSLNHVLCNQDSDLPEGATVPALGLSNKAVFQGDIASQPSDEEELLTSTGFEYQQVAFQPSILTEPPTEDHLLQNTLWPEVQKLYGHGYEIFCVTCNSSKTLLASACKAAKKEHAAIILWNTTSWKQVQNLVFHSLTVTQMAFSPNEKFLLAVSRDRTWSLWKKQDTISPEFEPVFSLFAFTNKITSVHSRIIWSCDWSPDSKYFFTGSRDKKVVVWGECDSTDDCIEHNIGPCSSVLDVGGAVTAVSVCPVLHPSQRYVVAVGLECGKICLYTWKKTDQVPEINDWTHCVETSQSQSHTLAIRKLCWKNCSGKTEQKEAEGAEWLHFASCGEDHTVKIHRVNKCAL

B1: tRNAGlnUUG (structured_RNA)
RNA: GGCCCCAUGGUGUAAUGGUUAGCACUCUGGACUUUGAAUCCAGCGAUCCGAGUUCAAAUCUCGGUGGGACCUCCA

Legend:
[1] = target: T1, human ELP123; experiment: cryo-EM structure ([…] Å); type: binding; conditions: with tRNA-GlnUUG and SAM; KAT domain of ELP3; pH 7.5; hydrolysis induced by tRNA
[2] = target: ELP1;ELP2;ELP3 K164A (Homo sapiens;Homo sapiens;Homo sapiens, UniProt O95163;Q6IA86;Q9H9T3 1-1332;1-826;1-547, ||K164A); experiment: MST; MST: 20 mM HEPES pH 7.5, 100 mM NaCl, 5 mM DTT, 0.05% Tween 20; incubated at 4 C 30 min, measured at 25 C; Cy5-tRNA 14 or 30 nM. Cryo-EM: 20 mM HEPES pH 7.5, 100 mM NaCl, 2 mM MgCl2, 2 mM DTT; conditions: protein: recombinant;recombinant;recombinant; tags: ;;C-terminal Twin-Strep-Tag; chain copies: 2;2;2; label: internal Cy5 (5% Cy5-CTP) for MST; tRNA fold
[3] = target: ELP1;ELP2;ELP3 R242K (Homo sapiens;Homo sapiens;Homo sapiens, UniProt O95163;Q6IA86;Q9H9T3 1-1332;1-826;1-547, ||R242K); experiment: as above; conditions: protein: recombinant;recombinant;recombinant; tags: ;;C-terminal Twin-Strep-Tag; chain copies: 2;2;2; label: internal Cy5 (5% Cy5-CTP) for MST; tRNA fold
[4] = target: ELP1;ELP2;ELP3 Y529A/Y530A (Homo sapiens;Homo sapiens;Homo sapiens, UniProt O95163;Q6IA86;Q9H9T3 1-1332;1-826;1-547, ||Y529A;Y530A); experiment: as above; conditions: protein: recombinant;recombinant;recombinant; tags: ;;C-terminal Twin-Strep-Tag; chain copies: 2;2;2; label: internal Cy5 (5% Cy5-CTP) for MST; tRNA fold
Chain of ELP1;ELP2;ELP3 Y529A/Y530A (Q9H9T3 whole entry Y529A/Y530A, chain 3 of 3, one chain of several): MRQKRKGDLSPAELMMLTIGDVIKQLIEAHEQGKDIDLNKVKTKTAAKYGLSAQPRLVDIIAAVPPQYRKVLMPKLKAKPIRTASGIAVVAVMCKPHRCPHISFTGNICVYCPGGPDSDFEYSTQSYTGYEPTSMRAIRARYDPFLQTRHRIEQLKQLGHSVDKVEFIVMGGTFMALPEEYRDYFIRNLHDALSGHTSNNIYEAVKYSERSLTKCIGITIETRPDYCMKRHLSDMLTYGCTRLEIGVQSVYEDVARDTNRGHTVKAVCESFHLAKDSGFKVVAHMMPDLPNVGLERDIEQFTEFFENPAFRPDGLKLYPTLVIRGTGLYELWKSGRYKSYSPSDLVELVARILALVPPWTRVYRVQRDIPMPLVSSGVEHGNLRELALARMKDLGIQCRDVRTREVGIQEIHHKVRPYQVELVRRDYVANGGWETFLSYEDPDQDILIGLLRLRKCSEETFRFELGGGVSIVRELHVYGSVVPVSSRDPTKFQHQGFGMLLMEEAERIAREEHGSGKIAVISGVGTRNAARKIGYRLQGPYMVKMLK

[5] = target: ELP1;ELP2;ELP3 wild type (Homo sapiens;Homo sapiens;Homo sapiens, UniProt O95163;Q6IA86;Q9H9T3 1-1332;1-826;1-547, ||); experiment: as above; conditions: protein: recombinant;recombinant;recombinant; tags: ;;C-terminal Twin-Strep-Tag; chain copies: 2;2;2; label: internal Cy5 (5% Cy5-CTP) for MST; tRNA fold
[6] = target: ELP1;ELP2;ELP3 E474A (Homo sapiens;Homo sapiens;Homo sapiens, UniProt O95163;Q6IA86;Q9H9T3 1-1332;1-826;1-547, ||E474A); experiment: as above; conditions: protein: recombinant;recombinant;recombinant; tags: ;;C-terminal Twin-Strep-Tag; chain copies: 2;2;2; label: internal Cy5 (5% Cy5-CTP) for MST; tRNA fold
[7] = target: ELP1;ELP2;ELP3 R402T (Homo sapiens;Homo sapiens;Homo sapiens, UniProt O95163;Q6IA86;Q9H9T3 1-1332;1-826;1-547, ||R402T); experiment: as above; conditions: protein: recombinant;recombinant;recombinant; tags: ;;C-terminal Twin-Strep-Tag; chain copies: 2;2;2; label: internal Cy5 (5% Cy5-CTP) for MST; tRNA fold
[8] = target: ELP1;ELP2;ELP3 Y363A (Homo sapiens;Homo sapiens;Homo sapiens, UniProt O95163;Q6IA86;Q9H9T3 1-1332;1-826;1-547, ||Y363A); experiment: as above; conditions: protein: recombinant;recombinant;recombinant; tags: ;;C-terminal Twin-Strep-Tag; chain copies: 2;2;2; label: internal Cy5 (5% Cy5-CTP) for MST; tRNA fold
[9] = target: ELP1;ELP2;ELP3 K280A (Homo sapiens;Homo sapiens;Homo sapiens, UniProt O95163;Q6IA86;Q9H9T3 1-1332;1-826;1-547, ||K280A); experiment: as above; conditions: protein: recombinant;recombinant;recombinant; tags: ;;C-terminal Twin-Strep-Tag; chain copies: 2;2;2; label: internal Cy5 (5% Cy5-CTP) for MST; tRNA fold
[10] = target: ELP1;ELP2;ELP3 H476A (Homo sapiens;Homo sapiens;Homo sapiens, UniProt O95163;Q6IA86;Q9H9T3 1-1332;1-826;1-547, ||H476A); experiment: as above; conditions: protein: recombinant;recombinant;recombinant; tags: ;;C-terminal Twin-Strep-Tag; chain copies: 2;2;2; label: internal Cy5 (5% Cy5-CTP) for MST; tRNA fold

Molecule	cryo-EM structure (2.87 Å) [1]	binding result [2]	binding result [3]	Kd [4] [nM]	Kd [5] [nM]	binding result [6]	binding result [7]	binding result [8]	binding result [9]	binding result [10]
CC(=O)SCCNC(=O)CCNC(=O)[C@H](O)C(C)(C)COP(=O)(O)OP(=O)(O)OC[C@H]1O[C@@H](n2cnc3c(N)ncnc32)[C@H](O)[C@@H]1OP(=O)(O)O [acetyl-CoA]	well-resolved ligand density that unambiguously fits a complete acetyl-CoA molecule	–	–	–	–	–	–	–	–	–
B1	–	binds	binds	94.7 ± 5.2	37.6 ± 5.3	binds	binds	binds	binds	binds
